Key:
Experiment in all cases: cell-based or functional assay
FGFR2(h) = FGFR2(h) (human, UniProt P21802 456-770, limits assumed)
ULK2(h) = target: T1, ULK2(h) (human, UniProt Q8IYT8 1-478, limits assumed)
T1 sequence (looked up): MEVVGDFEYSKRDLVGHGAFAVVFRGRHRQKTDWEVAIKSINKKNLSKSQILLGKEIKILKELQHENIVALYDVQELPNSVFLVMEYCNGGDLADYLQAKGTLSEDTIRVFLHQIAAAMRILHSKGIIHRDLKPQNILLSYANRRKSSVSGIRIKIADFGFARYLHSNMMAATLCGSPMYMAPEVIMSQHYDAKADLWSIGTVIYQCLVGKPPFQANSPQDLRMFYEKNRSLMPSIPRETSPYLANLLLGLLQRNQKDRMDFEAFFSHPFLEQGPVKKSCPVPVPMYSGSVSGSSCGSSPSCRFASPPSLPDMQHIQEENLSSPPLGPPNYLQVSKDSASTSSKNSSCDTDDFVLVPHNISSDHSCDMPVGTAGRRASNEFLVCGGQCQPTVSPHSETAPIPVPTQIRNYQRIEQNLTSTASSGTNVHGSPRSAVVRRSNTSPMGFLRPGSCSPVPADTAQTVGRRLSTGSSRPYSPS

RIPK2(h) = RIPK2(h) (human, UniProt O43353 1-299, limits assumed)
RIPK2(h), sequence (O43353 1-299 limits assumed): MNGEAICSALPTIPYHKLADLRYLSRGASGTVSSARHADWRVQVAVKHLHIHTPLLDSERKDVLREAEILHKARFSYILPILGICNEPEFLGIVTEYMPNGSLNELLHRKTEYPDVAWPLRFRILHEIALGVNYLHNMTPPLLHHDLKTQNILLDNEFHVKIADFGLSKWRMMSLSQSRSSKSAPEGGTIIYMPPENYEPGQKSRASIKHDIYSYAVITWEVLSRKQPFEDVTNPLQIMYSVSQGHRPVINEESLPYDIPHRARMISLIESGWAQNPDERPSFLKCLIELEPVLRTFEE

MLCK(h) = MLCK(h) (human)
IKKβ(h) = target: T2, IKKβ(h) (human, UniProt O14920 1-756, limits assumed)
T2 sequence (looked up): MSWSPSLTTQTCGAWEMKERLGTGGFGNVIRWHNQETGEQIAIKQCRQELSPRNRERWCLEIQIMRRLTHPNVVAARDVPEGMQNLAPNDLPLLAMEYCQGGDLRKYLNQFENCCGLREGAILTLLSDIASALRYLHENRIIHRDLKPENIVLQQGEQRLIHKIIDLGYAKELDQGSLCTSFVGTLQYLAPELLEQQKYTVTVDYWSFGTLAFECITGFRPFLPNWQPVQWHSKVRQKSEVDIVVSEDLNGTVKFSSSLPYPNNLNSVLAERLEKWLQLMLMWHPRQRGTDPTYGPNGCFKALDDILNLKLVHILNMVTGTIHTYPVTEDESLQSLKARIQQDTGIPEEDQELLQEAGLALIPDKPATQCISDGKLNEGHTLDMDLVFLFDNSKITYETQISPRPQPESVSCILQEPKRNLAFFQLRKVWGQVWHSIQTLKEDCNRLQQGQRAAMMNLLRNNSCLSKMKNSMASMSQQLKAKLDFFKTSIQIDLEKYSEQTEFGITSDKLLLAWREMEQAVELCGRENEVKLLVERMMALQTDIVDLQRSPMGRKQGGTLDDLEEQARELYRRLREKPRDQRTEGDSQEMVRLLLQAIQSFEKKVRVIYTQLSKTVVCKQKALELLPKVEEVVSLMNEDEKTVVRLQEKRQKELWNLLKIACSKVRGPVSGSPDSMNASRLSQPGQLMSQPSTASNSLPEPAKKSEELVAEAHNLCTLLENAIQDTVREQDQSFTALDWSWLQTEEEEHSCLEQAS

MEK1(h) = MEK1(h) (human, UniProt Q02750 1-393, limits assumed)
PKD2(h) = target: T3, PKD2(h) (human, UniProt Q9BZL6 1-878, limits assumed)
T3 sequence (looked up): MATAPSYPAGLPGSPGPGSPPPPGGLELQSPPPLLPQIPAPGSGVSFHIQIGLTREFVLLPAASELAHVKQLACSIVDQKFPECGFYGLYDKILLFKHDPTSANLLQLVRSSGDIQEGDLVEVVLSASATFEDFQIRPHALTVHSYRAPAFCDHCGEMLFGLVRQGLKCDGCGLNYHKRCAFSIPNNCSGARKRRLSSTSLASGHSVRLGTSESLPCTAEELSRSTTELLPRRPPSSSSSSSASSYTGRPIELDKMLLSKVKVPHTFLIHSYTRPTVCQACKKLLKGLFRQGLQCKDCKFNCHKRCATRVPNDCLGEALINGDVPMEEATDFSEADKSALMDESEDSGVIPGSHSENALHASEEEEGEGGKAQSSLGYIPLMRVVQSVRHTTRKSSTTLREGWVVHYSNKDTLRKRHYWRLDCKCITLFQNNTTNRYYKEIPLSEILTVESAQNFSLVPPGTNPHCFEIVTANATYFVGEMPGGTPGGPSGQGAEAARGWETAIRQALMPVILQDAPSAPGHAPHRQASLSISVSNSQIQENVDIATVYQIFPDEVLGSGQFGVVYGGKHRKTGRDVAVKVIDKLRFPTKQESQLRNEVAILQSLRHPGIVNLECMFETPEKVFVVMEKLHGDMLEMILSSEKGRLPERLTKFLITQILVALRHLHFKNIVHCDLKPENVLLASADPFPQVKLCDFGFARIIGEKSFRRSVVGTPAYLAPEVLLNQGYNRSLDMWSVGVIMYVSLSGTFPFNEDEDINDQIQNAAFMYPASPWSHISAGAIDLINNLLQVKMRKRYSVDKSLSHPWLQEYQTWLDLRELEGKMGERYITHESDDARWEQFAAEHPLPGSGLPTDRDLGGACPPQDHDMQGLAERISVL

mTOR/FKBP12(h) = mTOR/FKBP12(h) (human, UniProt P42345 1362-2549; P62942 1-108)
mTOR/FKBP12(h), sequence (P42345 1362-2549 limits assumed, chain 1 of 2): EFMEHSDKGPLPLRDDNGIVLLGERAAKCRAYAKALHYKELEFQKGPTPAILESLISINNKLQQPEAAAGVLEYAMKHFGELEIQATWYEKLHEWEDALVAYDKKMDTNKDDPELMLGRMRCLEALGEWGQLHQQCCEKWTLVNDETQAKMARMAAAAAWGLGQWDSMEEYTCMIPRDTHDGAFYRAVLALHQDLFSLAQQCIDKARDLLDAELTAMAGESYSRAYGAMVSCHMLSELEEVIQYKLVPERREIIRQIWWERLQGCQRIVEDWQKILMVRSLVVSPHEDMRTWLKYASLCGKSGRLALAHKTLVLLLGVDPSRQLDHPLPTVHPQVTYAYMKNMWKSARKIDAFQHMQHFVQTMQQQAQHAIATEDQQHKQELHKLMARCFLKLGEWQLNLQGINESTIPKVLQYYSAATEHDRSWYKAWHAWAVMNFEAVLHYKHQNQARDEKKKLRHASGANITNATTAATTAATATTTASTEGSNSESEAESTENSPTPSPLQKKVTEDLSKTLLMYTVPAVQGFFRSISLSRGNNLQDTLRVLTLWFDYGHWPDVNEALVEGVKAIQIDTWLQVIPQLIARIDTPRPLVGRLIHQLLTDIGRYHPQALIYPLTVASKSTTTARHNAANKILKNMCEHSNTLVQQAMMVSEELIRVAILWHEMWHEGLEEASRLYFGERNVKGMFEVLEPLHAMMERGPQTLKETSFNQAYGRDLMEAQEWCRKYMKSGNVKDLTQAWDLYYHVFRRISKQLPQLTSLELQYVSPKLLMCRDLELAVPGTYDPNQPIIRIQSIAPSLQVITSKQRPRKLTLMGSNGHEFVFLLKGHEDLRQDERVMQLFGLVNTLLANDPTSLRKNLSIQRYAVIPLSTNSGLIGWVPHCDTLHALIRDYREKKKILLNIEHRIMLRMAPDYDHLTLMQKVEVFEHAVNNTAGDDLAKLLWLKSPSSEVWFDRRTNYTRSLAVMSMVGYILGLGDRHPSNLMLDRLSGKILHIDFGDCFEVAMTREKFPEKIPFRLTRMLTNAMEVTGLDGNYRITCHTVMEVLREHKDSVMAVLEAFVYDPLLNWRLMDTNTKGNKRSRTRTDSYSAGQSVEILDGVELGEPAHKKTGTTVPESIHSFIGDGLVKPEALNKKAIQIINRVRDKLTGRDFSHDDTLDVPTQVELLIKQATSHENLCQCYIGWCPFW
mTOR/FKBP12(h), sequence (P62942 whole entry, chain 2 of 2): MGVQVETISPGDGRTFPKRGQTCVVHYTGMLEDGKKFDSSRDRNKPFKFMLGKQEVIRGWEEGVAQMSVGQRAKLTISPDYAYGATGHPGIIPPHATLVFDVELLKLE

PKCθ(h) = PKCθ(h) (human, UniProt Q04759 1-706)
PKCθ(h), sequence (Q04759 whole entry): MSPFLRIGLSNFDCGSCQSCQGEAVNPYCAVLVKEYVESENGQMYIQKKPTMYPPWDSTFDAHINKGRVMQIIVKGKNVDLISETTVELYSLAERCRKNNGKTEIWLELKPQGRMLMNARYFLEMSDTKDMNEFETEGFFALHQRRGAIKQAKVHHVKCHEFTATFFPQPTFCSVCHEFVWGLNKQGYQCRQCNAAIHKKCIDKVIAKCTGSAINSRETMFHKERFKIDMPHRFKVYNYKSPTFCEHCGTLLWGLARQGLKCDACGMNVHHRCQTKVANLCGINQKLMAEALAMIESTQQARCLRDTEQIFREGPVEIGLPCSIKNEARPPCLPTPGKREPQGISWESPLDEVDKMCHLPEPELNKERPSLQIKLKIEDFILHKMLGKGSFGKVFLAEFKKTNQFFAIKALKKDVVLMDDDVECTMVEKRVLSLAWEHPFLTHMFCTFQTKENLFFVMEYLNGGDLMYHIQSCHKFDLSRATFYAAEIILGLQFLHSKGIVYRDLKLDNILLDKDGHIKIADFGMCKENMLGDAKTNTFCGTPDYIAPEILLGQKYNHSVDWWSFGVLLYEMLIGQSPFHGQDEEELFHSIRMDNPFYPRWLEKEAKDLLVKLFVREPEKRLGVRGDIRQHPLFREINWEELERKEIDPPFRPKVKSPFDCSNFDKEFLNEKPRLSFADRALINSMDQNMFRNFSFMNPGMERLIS

cKit(D816V)(h) = cKit(D816V)(h) (human, UniProt P10721 544-976, limits assumed)
cKit(D816V)(h), sequence (P10721 544-976 D816V limits assumed): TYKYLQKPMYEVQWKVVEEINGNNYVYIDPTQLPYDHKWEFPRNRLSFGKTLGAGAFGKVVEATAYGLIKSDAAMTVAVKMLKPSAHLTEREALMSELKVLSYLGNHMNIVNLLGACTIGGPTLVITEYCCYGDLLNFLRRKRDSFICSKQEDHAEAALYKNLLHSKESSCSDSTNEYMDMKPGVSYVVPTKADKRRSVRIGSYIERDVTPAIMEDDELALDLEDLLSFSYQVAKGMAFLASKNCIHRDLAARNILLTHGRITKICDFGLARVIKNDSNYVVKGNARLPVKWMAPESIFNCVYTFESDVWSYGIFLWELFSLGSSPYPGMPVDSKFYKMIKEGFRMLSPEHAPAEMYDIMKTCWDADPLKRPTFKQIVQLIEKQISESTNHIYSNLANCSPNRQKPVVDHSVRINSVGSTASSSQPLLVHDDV

MELK(h) = MELK(h) (human, UniProt Q14680 1-340, limits assumed)
MELK(h), sequence (Q14680 1-340 limits assumed): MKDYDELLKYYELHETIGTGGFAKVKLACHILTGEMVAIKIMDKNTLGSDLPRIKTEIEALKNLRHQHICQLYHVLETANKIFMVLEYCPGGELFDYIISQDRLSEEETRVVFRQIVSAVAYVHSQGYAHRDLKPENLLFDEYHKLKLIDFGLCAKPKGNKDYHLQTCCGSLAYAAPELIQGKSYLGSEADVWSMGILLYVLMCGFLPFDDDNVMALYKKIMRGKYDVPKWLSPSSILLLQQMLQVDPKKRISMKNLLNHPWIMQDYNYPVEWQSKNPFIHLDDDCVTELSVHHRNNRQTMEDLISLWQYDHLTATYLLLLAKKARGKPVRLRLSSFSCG

Mer(h) = target: T4, Mer(h) (human, UniProt Q12866 578-872, limits assumed)
T4 sequence (looked up): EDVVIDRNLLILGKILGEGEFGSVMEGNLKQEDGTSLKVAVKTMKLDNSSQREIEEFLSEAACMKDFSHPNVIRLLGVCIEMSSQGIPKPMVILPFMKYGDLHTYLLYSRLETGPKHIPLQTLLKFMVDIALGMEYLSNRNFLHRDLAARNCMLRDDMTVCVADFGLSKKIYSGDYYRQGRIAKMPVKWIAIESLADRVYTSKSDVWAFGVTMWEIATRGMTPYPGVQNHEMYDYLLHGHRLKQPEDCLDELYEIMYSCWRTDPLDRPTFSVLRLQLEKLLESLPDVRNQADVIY
Note: test concentration or dose not given here.

FGFR2(h), sequence (P21802 456-770 limits assumed): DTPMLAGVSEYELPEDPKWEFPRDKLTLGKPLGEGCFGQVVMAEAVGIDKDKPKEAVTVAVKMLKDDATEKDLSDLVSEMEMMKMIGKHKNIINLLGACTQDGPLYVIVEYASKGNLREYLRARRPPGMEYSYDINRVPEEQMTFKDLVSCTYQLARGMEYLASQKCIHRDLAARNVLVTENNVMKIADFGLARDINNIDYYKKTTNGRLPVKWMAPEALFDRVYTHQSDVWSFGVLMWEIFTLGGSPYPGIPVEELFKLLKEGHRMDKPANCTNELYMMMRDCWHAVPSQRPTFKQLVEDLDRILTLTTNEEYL

Binder: FAKLAARLYRKALARQLGVAA [MMI-0300]
- % activity (FGFR2(h)): 14%
- % activity (ULK2(h)): 122%
- % activity (RIPK2(h)): 97%
- % activity (MLCK(h)): 2%
- % activity (IKKβ(h)): 84%
- % activity (MEK1(h)): 77%
- % activity (PKD2(h)): 33%
- % activity (mTOR/FKBP12(h)): 145%
- % activity (PKCθ(h)): 88%
- % activity (cKit(D816V)(h)): 60%
- % activity (MELK(h)): 16%
- % activity (Mer(h)): 52%

Binder: KAFAKLAARLYRKALARQLGVAA [MMI-0400]
- % activity (FGFR2(h)): 18%
- % activity (ULK2(h)): 131%
- % activity (RIPK2(h)): 98%
- % activity (MLCK(h)): 1%
- % activity (IKKβ(h)): 84%
- % activity (MEK1(h)): 77%
- % activity (PKD2(h)): 25%
- % activity (mTOR/FKBP12(h)): 125%
- % activity (PKCθ(h)): 76%
- % activity (cKit(D816V)(h)): 35%
- % activity (MELK(h)): 17%
- % activity (Mer(h)): 50%

Source: patent US20160200782A1 (MOERAE MATRIX, published 2016)
